Measured values taken from article PMC5461267, “Membrane Guanylate Cyclase catalytic Subdomain: Structure and Linkage with Calcium Sensors and Bicarbonate” (Frontiers in Molecular Neuroscience, 2017).
Substitutions are numbered along the chain they refer to. Numbers in names are those of the source.

Tests used:
[1] = biological target: T1, CCD/CTE (aa 817-1054) of ROS-GC1 (Bos taurus, UniProt P55203, A1013R); experiment: cyclic GMP radioimmunoassay, purified protein; type: biochemical; settings: 1 mM GTP, 4 mM MgCl2, pH 7.5, 37 °C
T1 construct: gene GUCY2D; dimer
T1 sequence (P55203 873-1110 A1013R): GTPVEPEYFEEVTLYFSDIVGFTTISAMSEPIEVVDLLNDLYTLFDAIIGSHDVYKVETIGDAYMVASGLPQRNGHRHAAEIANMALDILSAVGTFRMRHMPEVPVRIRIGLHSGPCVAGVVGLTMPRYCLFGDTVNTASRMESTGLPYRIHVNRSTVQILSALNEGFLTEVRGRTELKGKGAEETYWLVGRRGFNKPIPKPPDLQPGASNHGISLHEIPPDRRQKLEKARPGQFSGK

[2] = biological target: T2, ROS-GC1 (rod outer segment guanylate cyclase type 1), full-length recombinant (Bos taurus, UniProt P55203); experiment: cyclic GMP radioimmunoassay, COS cell membranes; Hill fit; type: biochemical; settings: constant Mg2+, GTP 0-3 mM, pH 7.5, 37 °C; half-maximal concentration from Hill equation
T2 construct: gene GUCY2D; full-length wild-type cDNA expressed in COS-7 cells; membrane fraction assayed; homodimer
T2 sequence (P55203 57-1110): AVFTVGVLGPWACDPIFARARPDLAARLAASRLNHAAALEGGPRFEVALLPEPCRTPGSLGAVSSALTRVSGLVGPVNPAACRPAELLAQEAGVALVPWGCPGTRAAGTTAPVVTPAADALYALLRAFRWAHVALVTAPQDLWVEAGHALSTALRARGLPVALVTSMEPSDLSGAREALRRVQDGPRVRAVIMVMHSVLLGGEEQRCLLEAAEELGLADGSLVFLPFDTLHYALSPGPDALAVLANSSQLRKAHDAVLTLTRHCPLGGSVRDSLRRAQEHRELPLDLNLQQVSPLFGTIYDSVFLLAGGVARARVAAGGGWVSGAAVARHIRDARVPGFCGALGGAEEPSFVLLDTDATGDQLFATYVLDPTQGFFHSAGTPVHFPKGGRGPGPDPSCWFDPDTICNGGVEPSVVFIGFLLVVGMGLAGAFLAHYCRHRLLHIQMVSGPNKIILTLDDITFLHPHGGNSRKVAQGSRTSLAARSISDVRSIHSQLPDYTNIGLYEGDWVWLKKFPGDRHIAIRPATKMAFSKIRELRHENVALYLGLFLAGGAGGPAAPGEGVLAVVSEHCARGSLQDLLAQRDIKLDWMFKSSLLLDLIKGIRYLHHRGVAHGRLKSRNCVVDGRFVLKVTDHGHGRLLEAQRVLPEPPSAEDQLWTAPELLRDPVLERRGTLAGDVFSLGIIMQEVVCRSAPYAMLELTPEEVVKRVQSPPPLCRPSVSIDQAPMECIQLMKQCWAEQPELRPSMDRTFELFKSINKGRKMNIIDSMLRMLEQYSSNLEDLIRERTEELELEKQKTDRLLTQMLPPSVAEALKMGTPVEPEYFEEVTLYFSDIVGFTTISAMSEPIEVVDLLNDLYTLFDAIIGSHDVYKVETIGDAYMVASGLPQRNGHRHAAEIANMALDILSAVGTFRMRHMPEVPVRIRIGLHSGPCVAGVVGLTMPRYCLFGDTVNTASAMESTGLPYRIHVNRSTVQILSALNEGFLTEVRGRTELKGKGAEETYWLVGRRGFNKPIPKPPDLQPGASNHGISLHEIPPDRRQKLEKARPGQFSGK

[3] = biological target: T3, CCD (aa fragment 817-965) of ROS-GC1 (Bos taurus, UniProt P55203, A1013R); experiment: cyclic GMP radioimmunoassay, purified protein; type: biochemical; settings: 1 mM GTP, 4 mM MgCl2, pH 7.5, 37 °C
T3 construct: gene GUCY2D; homodimer
T3 sequence (P55203 873-1021 A1013R): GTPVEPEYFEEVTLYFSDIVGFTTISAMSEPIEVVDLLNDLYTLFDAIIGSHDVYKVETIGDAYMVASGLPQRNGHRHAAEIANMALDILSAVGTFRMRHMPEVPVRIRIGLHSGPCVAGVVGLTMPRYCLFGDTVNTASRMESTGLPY

[4] = substrate: Nc1nc2c(ncn2[C@@H]2O[C@H](COP(=O)(O)OP(=O)(O)OP(=O)(O)O)[C@@H](O)[C@H]2O)c(=O)[nH]1; experiment: cyclic GMP radioimmunoassay, COS cell membranes; Hill fit; type: biochemical, Bos taurus; settings: constant Mg2+, GTP 0-3 mM, pH 7.5, 37 °C, half-maximal concentration from Hill equation

In the case of `Nc1nc2c(ncn2[C@@H]2O[C@H](COP(=O)(O)OP(=O)(O)OP(=O)(O)O)[C@@H](O)[C@H]2O)c(=O)[nH]1` [GTP], the “cyclic GMP radioimmunoassay, purified protein” value [1] is reported as “constructs lacked the TMD, illustrated by the CCD–CTE and CCD”, the Km [2] is reported as 500 ± 30 µM and the “cyclic GMP radioimmunoassay, purified protein” value [3] is reported as “The isolated soluble CCD construct contained only a minimal basal specific catalytic activity”.

B1: ROS-GC1 (rod outer segment guanylate cyclase type 1), full-length recombinant (Bos taurus; A1013R) (protein)
chain: T2 sequence (P55203 57-1110) with A957R
notes: full-length wild-type cDNA expressed in COS-7 cells; membrane fraction assayed; homodimer
Work on B1 yielded a Km [4] of 450 ± 20 µM.

B2: ROS-GC1 (rod outer segment guanylate cyclase type 1), full-length recombinant (Bos taurus; A1013R/R981A) (protein)
chain: T2 sequence (P55203 57-1110) with R925A, A957R
notes: as for B1
Work on B2 yielded a Km [4] of 520 ± 30 µM.

B3: ROS-GC1 (rod outer segment guanylate cyclase type 1), full-length recombinant (Bos taurus; A1013R/D890A) (protein)
chain: T2 sequence (P55203 57-1110) with D834A, A957R
notes: as for B1
B3 gave a Km [4] of 560 ± 30 µM.

B4: ROS-GC1 (rod outer segment guanylate cyclase type 1), full-length recombinant (Bos taurus; A1013R/C1002A) (protein)
chain: T2 sequence (P55203 57-1110) with C946A, A957R
notes: as for B1
B4 gave a Km [4] of 640 ± 20 µM.

B5: ROS-GC1 (rod outer segment guanylate cyclase type 1), full-length recombinant (Bos taurus; A1013R/N1009A) (protein)
chain: T2 sequence (P55203 57-1110) with N953A, A957R
notes: as for B1
In the case of B5, the Km [4] is reported as 490 ± 10 µM.

B6: ROS-GC1 (rod outer segment guanylate cyclase type 1), full-length recombinant (Bos taurus; A1013R/D934A) (protein)
chain: T2 sequence (P55203 57-1110) with D878A, A957R
notes: as for B1
Molecule B6 has a Km [4] of 480 ± 40 µM.

B7: ROS-GC1 (rod outer segment guanylate cyclase type 1), full-length recombinant (Bos taurus; A1013R/E930A) (protein)
chain: T2 sequence (P55203 57-1110) with E874A, A957R
notes: as for B1
For B7, the Km [4] was 530 ± 30 µM.
